To fix the notation:
B1: CPEB3 Ribozyme (parent)
chain: GGGGGCCACAGCAGAAGCGUUCACGUCGCGGCCCCUGUCAGAUUCUGGUGAAUCUGCGAAUUCUGCUGU

Variants of B1 are the subject of this data set. The data set can be described thus: self-cleavage, relative activity (ratio to wild type); higher = more cleavage; co-transcriptional.
For GGGUGCCACAGCAUAAGCGUUCACGUCGCGGCCCCUGUCAGAUUCUGGUGAAUCUGCGAAUUCUGCUGU, the self-cleavage stood at 0.241. Under GGGUGCCACAGCACAAGCGUUCACGUCGCGGCCCCUGUCAGAUUCUGGUGAAUCUGCGAAUUCUGCUGU stands 0.205.

For GGGUGCCACAGCAGAAGCGUUCACGUCGCGGCCCCUGUCACAUUCUGGUGAAUCUGCGAAUUCUGCUGU, the self-cleavage was 0.126. For GGGUGCCACAGCAGAAGCGUUCACGUCGCGGCCCCUGUCAGAUUCUCGUGAAUCUGCGAAUUCUGCUGU, the self-cleavage is 0.793.

Turning to GGGUGCCACAGCAGAAGCGUUCACGUCGCGGCCCCUGUCAGAUUCUUGUGAAUCUGCGAAUUCUGCUGU, the self-cleavage was determined as 0.873. As to GGGUGCCACAGCAGAAGCGUUCACGUCGCGGCCCCUGUCAGAUUCUAGUGAAUCUGCGAAUUCUGCUGU, the self-cleavage was 0.804. Under GGGUGCCACAGCAGAAGCGUUCACGUUGCGGCCCCUGUCAGAUUCUGGUGAAUCUGCGAAUUCUGCUGU stands 0.114; under GGGUGCCACAGCAGAAGCGUUCACGUAGCGGCCCCUGUCAGAUUCUGGUGAAUCUGCGAAUUCUGCUGU, 0.11; under GGGUGCCACAGUAGAAGCGUUCACGUCGCGGCCCCUGUCAGAUUCUGGUGAAUCUGCGAAUUCUGCUGU, 0.819.

For the variant GGGUGCCACAGGAGAAGCGUUCACGUCGCGGCCCCUGUCAGAUUCUGGUGAAUCUGCGAAUUCUGCUGU, the self-cleavage was 0.182.

For the variant GGGUGCCACAGAAGAAGCGUUCACGUCGCGGCCCCUGUCAGAUUCUGGUGAAUCUGCGAAUUCUGCUGU, the self-cleavage was determined as 0.255.

Regarding GGGUGCCACAGCAGAAGCGUUCACGUCGCGGCCCCUGUCAGAUUCUGGUGAAUCUGCAAAUUCUGCUGU, the self-cleavage came to 0.377. Under GGGUGCCACAGCAGAAGCGUUCACGUCGCGGCCCCUGUCAGAUUCUGGUGAAUCUGCCAAUUCUGCUGU stands 0.457. Regarding GGGUGCCACAUCAGAAGCGUUCACGUCGCGGCCCCUGUCAGAUUCUGGUGAAUCUGCGAAUUCUGCUGU, the self-cleavage came out at 0.492. Under GGGUGCCACAACAGAAGCGUUCACGUCGCGGCCCCUGUCAGAUUCUGGUGAAUCUGCGAAUUCUGCUGU stands 0.571; under GGGUGCCACACCAGAAGCGUUCACGUCGCGGCCCCUGUCAGAUUCUGGUGAAUCUGCGAAUUCUGCUGU, 0.228.

For the variant GGGUGACACAGCAGAAGCGUUCACGUCGCGGCCCCUGUCAGAUUCUGGUGAAUCUGCGAAUUCUGCUGU, the self-cleavage stood at 0.0552. Under GGGUGGCACAGCAGAAGCGUUCACGUCGCGGCCCCUGUCAGAUUCUGGUGAAUCUGCGAAUUCUGCUGU stands 0.0353; under GGGUGCCACAGCAGAAGCGUUCACGUCGCGGUCCCUGUCAGAUUCUGGUGAAUCUGCGAAUUCUGCUGU, 0.436; under GGGUGCCACAGCAGAAGCGUUCACGUCGCGGACCCUGUCAGAUUCUGGUGAAUCUGCGAAUUCUGCUGU, 0.135. Under GGGUGCCACAGCAGAAGCGUUCACGUCGCGGGCCCUGUCAGAUUCUGGUGAAUCUGCGAAUUCUGCUGU stands 0.129; under GGGUGCUACAGCAGAAGCGUUCACGUCGCGGCCCCUGUCAGAUUCUGGUGAAUCUGCGAAUUCUGCUGU, 0.233; under GGGUGCCACAGCAGAAGCGUUCACGUCGCGGCCACUGUCAGAUUCUGGUGAAUCUGCGAAUUCUGCUGU, 0.167.

Regarding GGGUGCCACAGCAGAAGCGUUCACGUCGCGGCCGCUGUCAGAUUCUGGUGAAUCUGCGAAUUCUGCUGU, the self-cleavage was determined as 0.113.

With GGGUGCCACAGCAGAAGCGUUCACGUCGCGGCCUCUGUCAGAUUCUGGUGAAUCUGCGAAUUCUGCUGU, the self-cleavage amounted to 0.361. Under GGGUGCCACAGCAGAAGCGUUCACGUCGCUGCCCCUGUCAGAUUCUGGUGAAUCUGCGAAUUCUGCUGU stands 0.103. Consider GGGUGCCACAGCAGAAGCGUUCACGUCGCCGCCCCUGUCAGAUUCUGGUGAAUCUGCGAAUUCUGCUGU, for which the self-cleavage amounted to 0.108.

Regarding GGGUGCCACAGCAGAAGCGUUCACGUCGCGUCCCCUGUCAGAUUCUGGUGAAUCUGCGAAUUCUGCUGU, the self-cleavage stood at 0.126. Under GGGUGCCACAGCAGAAGCGUUCACGUCGCGCCCCCUGUCAGAUUCUGGUGAAUCUGCGAAUUCUGCUGU stands 0.0584; under GGGUGCCACAGCAGAAGCGUUCACGUCGCGGCCCCUGUCAGAUUCUGGUGAAUCUGCGAAUUCUGAUGU, 0.468; under GGGUGCCACAGCAGAAGCGUUCACGUCGCGGCCCCUGUCAGAUUCUGGUGAAUCUGCGAAUUCUGUUGU, 0.771.

On to GGGUGCCACAGCAGAAGCGUUCAGGUCGCGGCCCCUGUCAGAUUCUGGUGAAUCUGCGAAUUCUGCUGU, for which the self-cleavage came to 0.0638. Under GGGUGCCACAGCAGAAGCGUUCAAGUCGCGGCCCCUGUCAGAUUCUGGUGAAUCUGCGAAUUCUGCUGU stands 0.122; under GGGUGCCACAGCAGAAACGUUCACGUCGCGGCCCCUGUCAGAUUCUGGUGAAUCUGCGAAUUCUGCUGU, 0.114; under GGGUGCCACAGCAGAAGCGUUCACGUCGCGGCCCCUGUCAGAUUCUGGUGAAUCUGCGAUUUCUGCUGU, 0.219. Under GGGUGCCACAGCAGAAGCGUUUACGUCGCGGCCCCUGUCAGAUUCUGGUGAAUCUGCGAAUUCUGCUGU stands 0.0611; under GGGUGCCACAGCAGAAGCGUUAACGUCGCGGCCCCUGUCAGAUUCUGGUGAAUCUGCGAAUUCUGCUGU, 0.065. Under GGGUGCCACAGCAGAAGCGUUCACGUCGCGGCCCCUGUCAGAUUCUGGUGAAUAUGCGAAUUCUGCUGU stands 0.289; under GGGUGCCACAGCAGAAGCGUUCACGUCGCGGCCCCUGUCAGAUUCUGGUGAAUGUGCGAAUUCUGCUGU, 0.21.

For GGGUGCCACAGCAGAAGCGUUCACGUCGCGGCCCCUGUCAGAUUCUGGUGAAUUUGCGAAUUCUGCUGU, the self-cleavage is 0.709. In the case of GGGUGCCACAGCAGAAGCGUUCACGUCGCGGCCCCUGUCAGAUUCUGGUGAAUCUGCGAAUUCUGCUUU, the self-cleavage came out at 0.928.

As for GGGUGCCACAGCAGAAGCGAUCACGUCGCGGCCCCUGUCAGAUUCUGGUGAAUCUGCGAAUUCUGCUGU, the self-cleavage was 0.121.

Take GGGUGCCACAGCAGAAGCGGUCACGUCGCGGCCCCUGUCAGAUUCUGGUGAAUCUGCGAAUUCUGCUGU: the self-cleavage worked out at 0.0683. Under GGGUGCCACAGCAGAAGCGCUCACGUCGCGGCCCCUGUCAGAUUCUGGUGAAUCUGCGAAUUCUGCUGU stands 0.14. Under GGGUGCCACAGCAGAAGCGUUCACGUCGCGGCCCCUGUCAGAUUCUGGUGAAUCUGCGAAUUCUACUGU stands 0.521; under GGGUGCCACAGCAGAAGCGUUCACUUCGCGGCCCCUGUCAGAUUCUGGUGAAUCUGCGAAUUCUGCUGU, 0.0695. Under GGGUGCCACAGCAGAAGCGUUCACCUCGCGGCCCCUGUCAGAUUCUGGUGAAUCUGCGAAUUCUGCUGU stands 0.116; under GGGUGCCACAGCAGAAGCGUUCACAUCGCGGCCCCUGUCAGAUUCUGGUGAAUCUGCGAAUUCUGCUGU, 0.101; under GGGUGCCACAGCAGAAGCGUUCACGUCGCGGCCCCUGUCAGAUUCUGGUGAAUCUGGGAAUUCUGCUGU, 0.165. As for GGGUGCCACAGCAGAAGCGUUCACGUCGCGGCCCCUGUCAGAUUCUGGUGAAUCUGUGAAUUCUGCUGU, the self-cleavage came out at 0.211. Under GGGUGCCAGAGCAGAAGCGUUCACGUCGCGGCCCCUGUCAGAUUCUGGUGAAUCUGCGAAUUCUGCUGU stands 0.974; under GGGUGCCAAAGCAGAAGCGUUCACGUCGCGGCCCCUGUCAGAUUCUGGUGAAUCUGCGAAUUCUGCUGU, 0.982. Under GGGUUCCACAGCAGAAGCGUUCACGUCGCGGCCCCUGUCAGAUUCUGGUGAAUCUGCGAAUUCUGCUGU stands 0.0723; under GGGUGCCACAGCAGAAGCGUUCACGUCGCGGCACCUGUCAGAUUCUGGUGAAUCUGCGAAUUCUGCUGU, 1. Under GGGUGCCACAGCAGAAGCGUUCACGUCGCGGCUCCUGUCAGAUUCUGGUGAAUCUGCGAAUUCUGCUGU stands 0.975; under GGGUGCCACAGCAGAAGUGUUCACGUCGCGGCCCCUGUCAGAUUCUGGUGAAUCUGCGAAUUCUGCUGU, 0.257. In the case of GGGUGCCACAGCAGAAGGGUUCACGUCGCGGCCCCUGUCAGAUUCUGGUGAAUCUGCGAAUUCUGCUGU, the self-cleavage came out at 0.0879. On to GGGUGCCACAGCAGAAGCGUUCACGUCGCGGCCCCUGUCAGAUUCUGGUAAAUCUGCGAAUUCUGCUGU, for which the self-cleavage came out at 0.752. Under GGGUGCCACAGCAGAAGCGUUCACGUCGCGGCCCCUGUCAGAUUCUGGUGAAUCUGCGAAUUGUGCUGU stands 0.292; under GGGUGCCACAGCAGAAGCGUUCACGUCGAGGCCCCUGUCAGAUUCUGGUGAAUCUGCGAAUUCUGCUGU, 0.0776. Under GGGUGCCACAGCAGAAGCGUUCACGUCGCGGCCCCUGUCAGAUUCUGGUGAAUCUCCGAAUUCUGCUGU stands 0.339.

With GGGUGCCACAGCAGAAGCGUUCACGUCGCGGCCCCUGUCAGAUUCUGGUGAAUCUUCGAAUUCUGCUGU, the self-cleavage is 0.559.

Regarding GGGUGCCACAGCAGAAGCGUACACGUCGCGGCCCCUGUCAGAUUCUGGUGAAUCUGCGAAUUCUGCUGU, the self-cleavage turned out to be 0.654. Turning to GGGUGCCACAGCAGAAGCGUCCACGUCGCGGCCCCUGUCAGAUUCUGGUGAAUCUGCGAAUUCUGCUGU, the self-cleavage is 0.4.

Consider GGGUGCCACAGCAGAAGCGUUCACGUCGCGGCCCCUGUCAGAUUCUGAUGAAUCUGCGAAUUCUGCUGU, for which the self-cleavage was determined as 0.856. Under GGGUGCCACAGCAGAAGCGUUCACGUCGCGGCCCCUAUCAGAUUCUGGUGAAUCUGCGAAUUCUGCUGU stands 0.144; under GGGUGCCACAGCAGAAGCGUUCACGUCGCGGCCCCUCUCAGAUUCUGGUGAAUCUGCGAAUUCUGCUGU, 0.169; under GGGUGCCACAGCAGAAGCGUUCACGUCGCGGCCCCUGUCAGAUUGUGGUGAAUCUGCGAAUUCUGCUGU, 0.587. Under GGGUGCCACAGCAGAAGCGUUCACGUCGCGGCCCCUGUCAGAUUAUGGUGAAUCUGCGAAUUCUGCUGU stands 0.554; under GGGUGCCACAGCAGAAGCGUUCACGUCGCGGCCCCUGUCAGAUUUUGGUGAAUCUGCGAAUUCUGCUGU, 0.743; under GGGUGCCACAGCAGAAGCGUUCACGUCCCGGCCCCUGUCAGAUUCUGGUGAAUCUGCGAAUUCUGCUGU, 0.0704. With GGGUGCCACAGCAGAAGCGUUCACGUCGCGGCCCCUGUAAGAUUCUGGUGAAUCUGCGAAUUCUGCUGU, the self-cleavage came out at 0.322. Under GGGUGCCACAGCAGAAGCCUUCACGUCGCGGCCCCUGUCAGAUUCUGGUGAAUCUGCGAAUUCUGCUGU stands 0.0957. Under GGGUGCCACAGCAGAAGCUUUCACGUCGCGGCCCCUGUCAGAUUCUGGUGAAUCUGCGAAUUCUGCUGU stands 0.112; under GGGUGCCACAGCAGAAGCAUUCACGUCGCGGCCCCUGUCAGAUUCUGGUGAAUCUGCGAAUUCUGCUGU, 0.0808; under GGGUGCCACAGCAGAAGCGUUCACGUCGCGGCCCAUGUCAGAUUCUGGUGAAUCUGCGAAUUCUGCUGU, 0.114. Under GGGUGCCACAGCAGAAGCGUUCACGUCGCGGCCCUUGUCAGAUUCUGGUGAAUCUGCGAAUUCUGCUGU stands 0.128; under GGGUGCCACAGCAGAAGCGUUCACGUCGCGGCCCGUGUCAGAUUCUGGUGAAUCUGCGAAUUCUGCUGU, 0.101.

The values are drawn from the RNAGym collection of RNA variant scans (doi:10.7554/elife.80360).
